Patent US20110245145

Tested on: HA-βarrestin2 1-185

endogenous Src of Hep3B hepatocytes
insulin-stimulated phosphorylations of Akt, GSK3P, and Foxo1: markedly reduced in the presence of βarrestin2 1-185
